The record followed here is publication PMC4778861, “Type One Protein Phosphatase 1 and Its Regulatory Protein Inhibitor 2 Negatively Regulate ABA Signaling” (PLoS Genetics, 2016).

The assay addresses T1, MBP-SnRK2.6 (Arabidopsis thaliana, UniProt Q940H6 1-362).
T1 construct: SNF1-related protein kinase 2.6 (SnRK2.6, OST1), Arabidopsis thaliana, in pMal-c2X; source: E. coli BL21 (DE3), purified (amylose resin); not shown: MBP, N-terminal, kept
T1 sequence (looked up): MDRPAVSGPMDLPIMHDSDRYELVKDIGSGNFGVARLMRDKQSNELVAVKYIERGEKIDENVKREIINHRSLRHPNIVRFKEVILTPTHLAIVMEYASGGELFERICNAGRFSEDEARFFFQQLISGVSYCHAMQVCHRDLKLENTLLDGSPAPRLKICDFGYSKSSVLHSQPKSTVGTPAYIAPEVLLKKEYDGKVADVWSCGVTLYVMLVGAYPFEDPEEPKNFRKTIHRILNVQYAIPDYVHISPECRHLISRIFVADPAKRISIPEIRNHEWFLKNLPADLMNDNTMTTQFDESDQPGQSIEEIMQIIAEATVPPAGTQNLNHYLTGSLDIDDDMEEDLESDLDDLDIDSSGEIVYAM
The assay is described as follows: pull-down; GST-TOPP1 or GST-AtI-2 incubated with MBP-SnRK2.6 in amylose resin, 4 hours at 4°C, washed 4 times with 1X PBS; SDS-PAGE, coomassie blue. Particulars: both partners purified.

B1: GST-TOPP1 (enzyme, Arabidopsis thaliana, UniProt P30366 1-318, looked up)
chain: MAEKPAQEQEQKRAMEPAVLDDIIRRLVEFRNTRPGSGKQVHLSEGEIRQLCAVSKEIFLQQPNLLELEAPIKICGDIHGQYSDLLRLFEYGGFPPEANYLFLGDYVDRGKQSLETICLLLAYKIKYPENFFLLRGNHESASINRIYGFYDECKRRFNVRLWKIFTDCFNCLPVAALIDDRILCMHGGISPELKSLDQIRNIARPMDIPESGLVCDLLWSDPSGDVGWGMNDRGVSYTFGADKVAEFLEKHDMDLICRAHQVVEDGYEFFAERQLVTVFSAPNYCGEFDNAGAMMSIDESLMCSFQILKPSEKKSPFL
notes: also called GST-tagged TOPP1; source: E. coli, purified (glutathione-agarose beads); not shown: GST, N-terminal, kept
With B1, the binding result is “binds”.

B2: GST-AtI-2 (natural protein, Arabidopsis thaliana, UniProt Q9LTK0 1-191, looked up)
chain: MTEPKRGRVQWDEANIVEIESNKPVRQKITEPKTPYHPMMDDDGSLSPRGRAFDECVDDMQRAEELRNVLNDAAASSSRNSSQGSGGGGWSSSDEEEEEADPMDQDEEGSGSGKNERFNAHRKAHYDEFRKVKELRSSGSFYEEEEEEDDGAKGSKSETTTNSRHTKGGNKELDATKTVSGTSSSSSPELI
notes: source: E. coli, purified (glutathione-agarose beads); not shown: GST, N-terminal, kept
B2: the binding result is listed as “binds”.
